The source of these data is US20030026781A1, “Compositions and methods for regulating endogenous inhibitor of ATP synthase, including treatment for diabetes” (MitoKor, priority 1999, published 2003).

What is called IC50 is the midpoint of a concentration-inhibition curve. A higher IC50 goes with lower potency.

In this test the target is mitochondrial ATP synthase (ETC Complex V) ATPase in rat liver submitochondrial particles (SMP) (rat) (UniProt P15999). The test is described as follows: cell-based or functional assay.

Turning to rat IF1 (from UniProt Q03344 26-107), the half-maximal inhibitory concentration (IC50) at pH 6.5, inhibition of oligomycin-sensitive ATPase in rat liver SMP was determined as 0.19 µM; the concentration for half-maximal inhibition (IC50) at pH 7.25, inhibition of oligomycin-sensitive ATPase in rat liver SMP was 0.42 µM; the IC50 at pH 8, inhibition of oligomycin-sensitive ATPase in rat liver SMP was > 0.8 µM.
